Measurements taken from patent US20220356259A1 (SHIHUDA PHARMACEUTICAL GROUP JILIN, published 2022).
Numbering of substitutions follows the chain as printed. Blank lines part the entries; values can stand above or below the binder they belong to.

Experiments:
[1] = target: T1, fusion protein in which the extracellular domain of human GITR is fused with the domain of mouse IgG1-Fc (human); experiment: BLI (Octet K2), antibody on AHC biosensor, hGITR-muFc in solution from 100 nM
T1 construct: The GITR part is said to start at residue 1 of Q9Y5U5, so the entry may hold a signal peptide; Made in HEK293 cells, Protein A purified; also called hGITR-muFc; human GITR protein
T1 chain: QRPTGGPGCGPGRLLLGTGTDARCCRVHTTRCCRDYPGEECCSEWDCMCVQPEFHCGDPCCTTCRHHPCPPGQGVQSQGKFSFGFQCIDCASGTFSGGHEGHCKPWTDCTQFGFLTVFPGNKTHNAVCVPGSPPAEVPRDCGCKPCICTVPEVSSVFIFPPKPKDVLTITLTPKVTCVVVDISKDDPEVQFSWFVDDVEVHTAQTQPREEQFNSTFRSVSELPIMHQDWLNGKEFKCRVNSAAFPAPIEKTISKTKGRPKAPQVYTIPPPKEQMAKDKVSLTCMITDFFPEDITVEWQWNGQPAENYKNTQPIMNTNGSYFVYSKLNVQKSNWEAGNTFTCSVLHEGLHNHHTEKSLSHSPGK
Protocol: Using the BLI method, the above 9 isolated antigen-binding proteins of the present application and C3E2 were immobilized on the AHC biosensor at a concentration of 10 µg/ml. At the same time, the hGITR-muFc prepared in Example 1 was diluted 2-fold from 100 nM in 5 gradients. The reaction plate was placed on Octet K2 instrument, meanwhile the program was set as Baseline 60 s, Association 20 s, Disscociation 300 s, Baseline 2 30 s, Loading 40 s, custom 5 s. At the end of the program, curve fitting and parameter conversion were conducted.

[2] = target: T1, fusion protein in which the …; experiment: ELISA, hGITR-muFc coated at 5 ug/ml, anti-human IgG-HRP (FIG. 6)
Protocol: (§1) An ELISA plate was coated with 5 μg/ml of hGITR-muFc at 100 μl/well, and incubated overnight at 4° C. The plate was washed with 10 mM of PBS/Tween (0.05%) at pH 7.4 for 3 times, blocked with PBS containing 3% BSA and incubated at 37° C. for 2 h; then washed for 3 times, added with the above 9 isolated antigen-binding proteins of the present application in 3-fold dilutions starting from 10 μg/ml, incubated at 37° C. for 2 h, washed for 3 times, added with anti-human IgG-HRP enzyme-labeled secondary antibody, incubated at 37° C. for 1 h, cleaned, then developed with TMB substrate, and subjected to spectrophotometric analysis at OD450 nm. The results are shown in FIG. 5 and FIG. 6, in which the EC₅₀ values of various proteins in FIG. 5 and FIG. 6 are shown in Table 3 and Table 4, respectively. It can be seen from FIG. 5 and FIG. 6 as well as Table 3 and Table 4 that, the humanized antibodies (i.e., the isolated antigen-binding proteins of the present application 3E2 1-2, 3E2 1-3, 3E2 1-4, 3E2 2-2, 3E2 2-3, 3E2 2-4, 3E2 3-2, 3E2 3-3 and 3E2 3-4) have a binding affinity to the antigen that is equivalent to that of the parent antibody (i.e., the isolated antigen-binding protein C3E2 of the present application).

[3] = target: T1, fusion protein in which the …; experiment: ELISA, hGITR-muFc coated at 5 ug/ml, anti-human IgG-HRP (FIG. 5)
Protocol: as §1

Kd [1]: < 1 pM | koff [1]: < 1e-07 s⁻¹ | kon [1]: 2.46e+06 M⁻¹ s⁻¹ | EC50 [2]: 4.71 ng/mL
B1: isolated antigen-binding protein 3E2 2-3 (antibody, human IgG1, kappa)
heavy: not shown
light: DIVMTQSPLSLPVTLGQPASISCRSSQTIVHSNGNTYLEWYLQKPGQSPKLLIYKVSNRFSGVPDRFSGSGSGTDFTLKISRVEAEDVGVYYCFQGSHVPWTFGGGTKLEIKRTVAAPSVFIFPPSDEQLKSGTASVVCLLNNFYPREAKVQWKVDNALQSGNSQESVTEQDSKDSTYSLSSTLTLSKADYEKHKVYACEVTHQGLSSPVTKSFNRGEC
notes: also called VHV2/VLV3

EC50 [3]: 5.9 ng/mL | Kd [1]: < 1 pM | koff [1]: < 1e-07 s⁻¹ | kon [1]: 2.49e+06 M⁻¹ s⁻¹
B2: isolated antigen-binding protein 3E2 1-2 (antibody, human IgG1, kappa, V domains shown)
VH: QVTLQESGPTLVKPTQTLTLTCTFSGFSLSTFGMGVGWIRQPPGKGLEWLVLILWNDIKYYNPALKSLLTVTKDTSKNQVVLTITNMDPVDTATYYCARVDGYYGYFDVWGQGTMVTVSS
VL: DIVMTQSPLSLPVTLGQPASISCRSSQTIVHSNGNTYLEWYLQRPGQSPKLLIYKVSNRFSGVPDRFSGSGSGTDFTLKISRVEAEDVGVYYCFQGSHVPWTFGGGTKVEIKR
notes: also called VHV1/VLV2

EC50 [3]: 5.64 ng/mL | Kd [1]: 12.5 pM | koff [1]: 3.01e-05 s⁻¹ | kon [1]: 2.4e+06 M⁻¹ s⁻¹
B3: isolated antigen-binding protein 3E2 2-2 (antibody, human IgG1, kappa)
heavy: not shown
light: B1 light with K44R, L109V
notes: also called VHV2/VLV2

Kd [1]: < 1 pM | koff [1]: < 1e-07 s⁻¹ | kon [1]: 2.49e+06 M⁻¹ s⁻¹ | EC50 [2]: 6.04 ng/mL
B4: isolated antigen-binding protein 3E2 3-3 (antibody, human IgG1, kappa)
heavy: not shown
light: B1 light
notes: also called VHV3/VLV3

EC50 [3]: 4.52 ng/mL | Kd [1]: < 1 pM | koff [1]: < 1e-07 s⁻¹ | kon [1]: 2.55e+06 M⁻¹ s⁻¹
B5: isolated antigen-binding protein 3E2 1-4 (antibody, human IgG1, kappa)
heavy: not shown
light: B1 light with Q17D, P18Q
notes: also called VHV1/VLV4

Kd [1]: 4.72 pM | koff [1]: 1.23e-05 s⁻¹ | kon [1]: 2.6e+06 M⁻¹ s⁻¹ | EC50 [2]: 6.43 ng/mL
B6: isolated antigen-binding protein 3E2 3-4 (antibody, human IgG1, kappa)
heavy: not shown
light: B1 light with Q17D, P18Q
notes: also called VHV3/VLV4

Kd [1]: < 1 pM | koff [1]: < 1e-07 s⁻¹ | kon [1]: 2.41e+06 M⁻¹ s⁻¹ | EC50 [2]: 4.8 ng/mL
B7: isolated antigen-binding protein 3E2 2-4 (antibody, human IgG1, kappa)
heavy: not shown
light: B1 light with Q17D, P18Q
notes: also called VHV2/VLV4

Kd [1]: < 1 pM | koff [1]: < 1e-07 s⁻¹ | kon [1]: 2.52e+06 M⁻¹ s⁻¹ | EC50 [2]: 5.28 ng/mL
B8: isolated antigen-binding protein 3E2 3-2 (antibody, human IgG1, kappa)
heavy: not shown
light: B1 light with K44R, L109V
notes: also called VHV3/VLV2

EC50 [3]: 5.83 ng/mL | Kd [1]: < 1 pM | koff [1]: < 1e-07 s⁻¹ | kon [1]: 2.32e+06 M⁻¹ s⁻¹
B9: isolated antigen-binding protein 3E2 1-3 (antibody, human IgG1, kappa)
heavy: not shown
light: B1 light
notes: also called VHV1/VLV3

EC50 [3]: 6.21 ng/mL | Kd [1]: 6.01 pM | koff [1]: 1.83e-05 s⁻¹ | kon [1]: 3.05e+06 M⁻¹ s⁻¹ | EC50 [2]: 6.72 ng/mL
B10: isolated antigen-binding protein C3E2 (antibody, human IgG1, kappa, V domains shown)
VH: QVQLQESGPGILQPSQTLSLTCSFSGFSLSTFGMGVGWIRQPSGKGLEWLVLILWNDIKYYNPALKSLLTVSKDTSNNQVFLKIASVDTADTATYYCARVDGYYGYFDVWGTGTTVTVSS
VL: B2 VL with T14S, Q17D, P18Q, R44K, V88L, V109L
notes: made in HEK293 cells; also called parent antibody; chimeric antibody
